The nature of this data set: yeast display, Sf9 membrane polyspecificity reagent, FACS + sequencing; frameworks hold sequencing errors. In a few lines:
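Galactose-induced (36–48 hours) yeast carrying a synthetic nanobody display library were exposed to 10% biotinylated, detergent-solubilized Sf9 membrane reagent at 4 °C for 1 hour. FACS followed streptavidin microbead enrichment, using low and high (top ~1%) gates for expression (anti-HA) and reagent binding (streptavidin). Colony PCR, MiSeq 2 × 250 sequencing and CDR-length filtering followed. Labels for polyreactivity reflect the gate of origin.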
As for “QVQLVESGGGLVQAGGSLRLSCAASGRTFGYNAMGWYRQAPGKERELVATISWGCGSTYYADSLKWRFTISPDNAKNTVYLQMNSLKPEDTAVYYCNKVHYGRLHSYSRAIYGEDYWGQGTQVTVSS”, the “polyreactivity (PSR sort gate)” value was “high polyreactivity”.
For “QVQLVESGGGLVQAGGSLRLSCAASGRTFGYNAMGWYRQAPGKETELVAAIRYSGGSTYYADSVKGRFTISRDNSKNTVYLQMNSLKPEDTAVYYCAKETRRYYRGYYYWGQGTQVTVSS”, the “polyreactivity (PSR sort gate)” value was “high polyreactivity”.
“QVQLVESGGGLVQAGGSLRLSCAASGRTFGYNVMGWYRQAPGKERELVADITSTSSTSYADSVKGRFTISRDNAKNTVYLQMNSLKPEDTAVYYCAAYYYFFRRYSWRLSGDYWGQGTQVTVSS”: the “polyreactivity (PSR sort gate)” value was “low polyreactivity”.
“QVQLVESGGGLVQAGGSLRLSCAASGRTFGYYAMGWYIQAPGKERELVAAISSRGGSTYYADSVKGRFTISRDNAKNTVYLQMNSLKPEDTAVYYCNTRWTNIHPRYDYWGQGTQVTVSS”: the “polyreactivity (PSR sort gate)” value was “high polyreactivity”.
Take “QVQLVESGGGLVQAGGSLRLSCAASGRTFGYYAMGWYRPAPGKERELVAAISSGGGTYYADSVKGRFTISRDNAKNTVYLQRNSLNPEASAVYYIAATGWLYWGQFYYWGQGTLVTVSS”: the “polyreactivity (PSR sort gate)” value is listed as “low polyreactivity”.
Take “QVQLVESGGGLVQAGGSLRLSCAASGRTFGYYAMGWYRQAPGKEREFVAAISFRTTSTYYADSVKGRFTISRDNAKNTVYLQMNSLKPEDTAVYYCNADWYLLSTWYDYWGQGTQVTVSS”: the “polyreactivity (PSR sort gate)” value is “high polyreactivity”.
On to “QVQLVESGGGLVQAGGSLRLSCAASGRTFGYYAMGWYRQAPGKERELVAAISGSGGSTYYADSVKGRFTISRDNAKNTVYLQMKSLKPEDTAVYYCNVYPPYAMDYWGQGTQVTVSS”, for which the “polyreactivity (PSR sort gate)” value was “high polyreactivity”.
For “QVQLVESGGGLVQAGGSLRLSCAASGRTFGYYAMGWYRQAPGKERELVAAISRSGGSTYYADSVKGRFTISRDNAKNTVYLQMNSLKPEDTAVYYCAVKGYVKSDYWGQGTQVTVSS” the value was “high polyreactivity”.
In the case of “QVQLVESGGGLVQAGGSLRLSCAASGRTFGYYAMGWYRQAPGKERELVAAISWSGGRTYYADSVKGRFTISRDNAKNTVYLQMNSLKPEDTAVYYCAAQTAGFWYDYWGQGTQVTVSS”, the “polyreactivity (PSR sort gate)” value is given as “high polyreactivity”.
As for “QVQLVESGGGLVQAGGSLRLSCAASGRTFGYYAMGWYRTAPGKERELVAAIRSTGSTNYADSVKGRFTISRDNAKNTVYLQMNSLKPEDTAVYYCNAKRRFRYDYWGQGTQVTVSS”, the “polyreactivity (PSR sort gate)” value is reported as “low polyreactivity”.
Take “QVQLVESGGGLVQAGGSLRLSCAASGRTFGYYTMGWSRQAPGKERDLVATISSDGTTNYADSVKGRFTISRDNAKNTVYLQMNSLKPEDTAVYYCNADFRLQYYYRIYDYWGQGTQVTVSS”: the “polyreactivity (PSR sort gate)” value is “low polyreactivity”.
In the case of “QVQLVESGGGLVQAGGSLRLSCAASGRTFGYYVMGWYRQAPGKERELVAAISQSGGSTYYADSVKGRFTISRDNAKNTVYLQMNSLKPEDTAVYYCAKRGWRTFQGGYWGQGTQVTVSS”, the “polyreactivity (PSR sort gate)” value is “high polyreactivity”.
Consider “QVQLVESGGGLVQAGGSLRLSCAASGRTFHGYAMGWYRQAPGKERELVARINWSDGRTYYADSVKGRFTISRDNAKNTVYLQMNSLKPVDTAVYYCAADKNVSYAPAWFYYWGQGTQVTVSS”, for which the “polyreactivity (PSR sort gate)” value was “low polyreactivity”.
For the sequence “QVQLVESGGGLVQAGGSLRLSCAASGRTFHHNAMGWYRQAPGKERELVATITAGSGSTYYADSVKGRFTISRDNAKNTVYLQMNSQKPEDTAVYYCAARVGWNKRRYDYWGQCTQVTVSS”, the “polyreactivity (PSR sort gate)” value is listed as “low polyreactivity”.
Take “QVQLVESGGGLVQAGGSLRLSCAASGRTFHIYAMGWYRQAPGKERELVAAIRGRSGSTYYADSVKGRFTISRDNAKNTVYLQMNSLKPEDTAVYYCAVGRYPYGSARYRFDYWGQGTQVTVSS”: the “polyreactivity (PSR sort gate)” value was “high polyreactivity”.
In the case of “QVQLVESGGGLVQAGGSLRLSCAASGRTFHKNAMGWYRQAPGQERELVAAISGSGGSTYYADSVKGRFTISRDNAKNTVYLQMNSLKPEDTAVYYCAADSSYYEEDYWGQGNQVTVSS”, the “polyreactivity (PSR sort gate)” value is recorded as “high polyreactivity”.
For the sequence “QVQLVESGGGLVQAGGSLRLSCAASGRTFHRYAMGWYRQAPGKERELVATISRGGSTNYADSVKGRFTISRDNAKNTVYLQMHSLKPEDTAVYYCAAESWIYWYPDTGDYWGQGTQVTLSS”, the “polyreactivity (PSR sort gate)” value was “high polyreactivity”.
On to “QVQLVESGGGLVQAGGSLRLSCAASGRTFHSNAMGWYRKAPGKERELVAAIRFGGGSTYYADSVKGRFTISRDNAKNTVYLQMNSLKPEDTAVYYCNASPLWIGWEIVPVGSSHYDYWGQGTQVTVSS”, for which the “polyreactivity (PSR sort gate)” value is “low polyreactivity”.
As for “QVQLVESGGGLVQAGGSLRLSCAASGRTFHSNDMGWYRQAPGKERELVAAISSSDGITYYADSVKGRFTISRDNAKNTVYLQMNSLKQEDNAVYYCAARRYRSGYYSFYFWGQGTQVTVSS”, the “polyreactivity (PSR sort gate)” value was “high polyreactivity”.
For “QVQLVESGGGLVQAGGSLRLSCAASGRTFHYNAMGWYRQAPGKERELVAAITRSGGSTYYADSVKGRFTISRDNAKNTVYLQMNSLKPEDTAVYYCNAAYLHPGPFDYWGQGTQVTVSS” the value was “low polyreactivity”; for “QVQLVESGGGLVQAGGSLRLSCAASGRTFHYYAMGWYRQAPGKERELVAGISRRGGSTSYADSVKGRFTISRDNAKNTLYLQMNSLKPEDTAVYYCNADRVTFSWPVNYYWVDYWGQGTQVTVSS”, “high polyreactivity”.
Take “QVQLVESGGGLVQAGGSLRLSCAASGRTFIGNVMGWSRQAPGKERELVAAITRSGGSTYYADSVKGRFTISRDNAKNTVYLQMNSLKPEDTAVYYCNAVRRTGGHGDYWGQGTQVTVSS”: the “polyreactivity (PSR sort gate)” value was “high polyreactivity”.
On to “QVQLVESGGGLVQAGGSLRLSCAASGRTFIGYAMGWYRQAPGKERELVAAISSGGNTYYADSVKGRFTISRDNAKNTVYFQMNSLKPEDTAVYYCAAKGYRRVARYFIGDYWGQGTQVTVSS”, for which the “polyreactivity (PSR sort gate)” value is reported as “low polyreactivity”.
For the sequence “QVQLVESGGGLVQAGGSLRLSCAASGRTFIIYTMGWYRQAPGKEREFVAAITRSGGGTYYADSVKGRFTISRDNAKNTVYLQMNSLKPEDTAVYYCAADRFYDQAYDYWGQGTQVTVSS”, the “polyreactivity (PSR sort gate)” value is reported as “low polyreactivity”.
As for “QVQLVESGGGLVQAGGSLRLSCAASGRTFIIYTMGWYRQAPGKEREFVAAITRSGGGTYYADSVKGRFTISRDNAKNTVYLQMNSLKPEDTAVYYFAADRFYDQAYDYWGQGTQVTVSS”, the “polyreactivity (PSR sort gate)” value is “low polyreactivity”.
For “QVQLVESGGGLVQAGGSLRLSCAASGRTFIKYAMGWYRQAPGKERELVAAITYSAGSTSYADSVKGRFTISRDNAKNTVYLQMNSLKPEDTAVYYCNAVPTWWTQEVGSYKSLGYWGQGTQVTVSS” the value was “low polyreactivity”.
For the sequence “QVQLVESGGGLVQAGGSLRLSCAASGRTFINNAMGWYRQAPGKERELVAAISWDGGRTYYADSVKGRFTISRDNAKNTVYLQMNSLKPEDTAVYYCNAQPNYAYHGEDDYWGQGTQVTVSS”, the “polyreactivity (PSR sort gate)” value was “high polyreactivity”.
For the sequence “QVQLVESGGGLVQAGGSLRLSCAASGRTFIPYAMGWYRQAPGKERELVATIRRGGSTYYADSVKGRFTISRDNAKNTVYLQMYSLKPEDTAVYYCAATRYSFGPRRVDYWGQGTQVTVSS”, the “polyreactivity (PSR sort gate)” value is reported as “high polyreactivity”.
For “QVQLVESGGGLVQAGGSLRLSCAASGRTFIPYGMGWYRQAPGKERELVAAIRDGGSTNYADSVKGRFTISRDNAKNTVYLQMNSLKPADTAVYYCNADLPVYVDYINGGYGYWGQGTQVTVSS” the value was “low polyreactivity”; for “QVQLVESGGGLVQAGGSLRLSCAASGRTFIRYAMAWYRQAPGKGRELLAANNWSGSTYYADSVKGRFTISRDNAKNTVYVQINSLKPEDTAVYYCAAYPYGVTNAYGSWGQGTQVTVSS”, “high polyreactivity”.

The values are drawn from the nanobody polyreactivity screen of Harvey et al. (2022).
